Experimental data taken from doi:10.1101/2024.02.13.580058 (bioRxiv, 2024).

Biological target: BG505 gp120 (HIV-1 isolate BG505 (clade A), UniProt Q2N0S6)
Assay: ELISA; 250 ng BG505 gp120 coated on the plate; monoclonal antibodies from 20 µg/mL in seven 6-fold dilutions, 1 hr, room temperature; detected with alkaline phosphatase anti-human F(ab')2
Conditions: both partners purified

Row | Binder | binding result
1 | Bess1 (antibody, also called Bess1_WT; source: Expi293 or 293F cells, transient, purified (Protein A Sepharose or Praesto AP)) VH: QVQLRESGPSLVKPSQTLSLTCTVSGISLSDKAVGWVRQAPGKALEWLGSIDAGGSTGYNPGLKSRLSITTDNSKSQVSLSMSGVTTEDSATYYCTTVHQKTLKQKTCPEGYSDDDGCDDSYGCGDDCCCYGGYSDYGGYEYACCSRTYTYEFHVDAWGQGLLVTVSS VL: QAVLNQPSSVSGSLGQRVSITCSGSSSNVGNGYVSWYQLIPGSAPRTLIYGDTSRASGVPDRFSGSRSGNTATLTISSLQAEDEADYFCASAEDSSSNAVFGSGTTLTVL | no binding (tested: 20 µg/mL)
2 | ElsE5 (antibody, source: Expi293 or 293F cells, transient, purified (Protein A Sepharose or Praesto AP)) VH: QVQLQESGPSLVKPSQTLSLTCTTSGFSLSDKTVGWVRQAPGKALEWLGSIDTSGRTGYNPGLKSRLDITKDNPKRQVSLSLSSVTTADSATYYCTTVHQQTRKGCPDGWSFGWDCGFHGYGREDCYDDCTDILSSQTLSPTDTYEFHVDAWGQGLLVTVSS VL: QAVLTQPSSVSGSLGQRVSITCSGSSSNVGNGYVSWYQLIPGSAPRTLIYGDTTRASGVPDRFSGSRSGNTATLSITSLQAEDETDYFCASAEDSSSNAVFGSGTTLTVL | no binding (tested: 20 µg/mL)
3 | Bess5 (antibody, source: Expi293 or 293F cells, transient, purified (Protein A Sepharose or Praesto AP)) VH: QVQLQESGPSLVKPSQTLSLMCAASGFSLSDKTVGWVRQAPGKALEWLGSIDSSGSTGYNPGLKSRLTITKDSSKSQVSLSVSSVTTEDSATYYCTTVHQQTRNKEKTCPGGEDCGIGCCCAGCSATDYGCWDGSSYASYSYIYTYDIHVDAWGQGLLVTVSS VL: QAVLNQPSSVSGSLGQRVSITCSGSSSNVGNGYVSWYQLIPGSAPRTLIYGDTSRASGVPDRFSGSRSGNTATLTISSLQAEDEADYFCASAEDSSSNAVFGSGTTLTVL | no binding (tested: 20 µg/mL)
4 | Bess2 (antibody, source: Expi293 or 293F cells, transient, purified (Protein A Sepharose or Praesto AP)) VH: KVQLRESGPSLVKPSQTLSLTCTVSGFSLSDKAVGWVRQAPGKALEWLGSIDTGGSTGYNPGLKSRLSITKDNSKSQVSLSVTSVTTEDSTTYYCTTVHQTTKTTKKCPDGYNYDDGCASDLGCGEADCCCYGGYDEYGGYLYSCCSYSYTYEWYVDAWGQGLLVTVSS VL: QAVLNQPSSVSGSLGQRVSITCSGSSSNVGNGYVSWYQLIPGSAPRTLIYGDTSRASGVPDRFSGSRSGNTATLTISSLQAEDEADYFCASAEDSSSNAVFGSGTTLTVL | no binding (tested: 20 µg/mL)
5 | Bess7 (antibody, source: Expi293 or 293F cells, transient, purified (Protein A Sepharose or Praesto AP)) VH: QVQLRESGPSLVKPSQTLSLTCTVSGFSLNDKAVGWVRQAPGRALEWLGSVSTGGSTTYNPGLKPRLSITKDNSKSQISLTVTSVTTEDSATYYCTTVHQTTKTTKECPEGYNWDDGCGSELGCGGADCCCWGGVDEYAGDLYSCCSVAHTYEWYVDAWGQGLLVTVSS VL: QAVLNQPSSVSGSLGQRVSITCSGSSSNVGNGYVSWYQLIPGSAPRTLIYGDTSRASGVPDRFSGSRSGNTATLTISSLQAEDEADYFCASAEDSSSNAVFGSGTTLTVL | no binding (tested: 20 µg/mL)
6 | ElsE4 (antibody, source: Expi293 or 293F cells, transient, purified (Protein A Sepharose or Praesto AP)) VH: QVQLRESGPSLVKPSQTLSLTCTTSGFSLSDKTVGWVRQAPGKALEWLGSRDSSGKTAYNPGLKSRLSITNDNSKSQVSLSLSSVSTADSATYYCTTVHQQTRKSCPDGWSFGWDCGFHGYGVGDCYDDCTDILSSQTLSPTDTYELHIDAWGQGLLVTVSS VL: QAVLTQPSSVSGSLGQTVSITCSGTSSNVGNGYVTWYQVIPRSAPRTLIFGDTSRASGVPDRFSGSRSGNTATLTISSLQAEDEADYFCASAEDTSSNVVFGSGTTLTVL | no binding (tested: 20 µg/mL)
7 | ElsE6 (antibody, source: Expi293 or 293F cells, transient, purified (Protein A Sepharose or Praesto AP)) VH: KVQLQESGPSLVKPSQTLSLTCTTSGFSLSDNAVGWVRQAPGKALEWLGSIDSGGSTGYNPGLKSRLSITKDNSKSQVSLSVSSVTTADSATYYCTTVHQQTRKSCPAGYTLAKDCGFYGYGSEDCYDDCSDILSSHTLSPTTTYELHVDAWGQGLLVTVSS VL: QAVLTQPSSVSGSLGQRVSITCSGSSTNVGNGYVSWYQLIPGSAPRTLIYGDTNRASGVPDRFSGSRSGNTATLTISSLQAEDEADYFCLSAEDSSSNAIFGSGTTLIVL | no binding (tested: 20 µg/mL)
8 | Bess8 (antibody, source: Expi293 or 293F cells, transient, purified (Protein A Sepharose or Praesto AP)) VH: QVQLRESGPSLVKPSQTLSLTCTVSGFSLSDKAVGWVRQAPGKALEWLGSIDIGGSTGYNPGLKSRLSITKDNSKSQVSLSVTSVTTEDSATYYCTIVYQTTKTTKKCPDGYNYDDGCASDLGCGEADCCCYGGDDEYAGHLYSCCSYSHTYEWYVGAWGQGLLVTVSS VL: QAVLNQPSSVSGSLGQRVSITCSGSSSNVGNGYVSWYQLIPGSAPRTLIYGDTSRASGVPDRFSGSRSGNTATLTISSLQAEDEADYFCASAEDSSSNAVFGSGTTLTVL | no binding (tested: 20 µg/mL)
9 | ElsE11 (antibody, source: Expi293 or 293F cells, transient, purified (Protein A Sepharose or Praesto AP)) VH: KVQLRESGPSLVKPSQTLSLTCTTSGFSLSDKTVGWVRQAPGKALEWLGSTDTSGNTGYNPGLKSRLSITKDNSKSQVSLSVSSVSTADSATYYCTTVRQQTRKSCPDGWTLAKDCGFYGYGSEDCYDDCTDILSSNTLSPTTTHEFNVDAWGQGLLVTVSS VL: QAVLTQPSSVSGSLGQRVSITCSGSSSNTGNGAVSWYQLIPGSAPRTLIYGDTSRTSGVPDRFSGSRSGNIATLTISSLQAEDEGDYFCGSAEDSSSNAIFGSGTTLTVL | no binding (tested: 20 µg/mL)
10 | ElsE3 (antibody, source: Expi293 or 293F cells, transient, purified (Protein A Sepharose or Praesto AP)) VH: KVQLQESGPSLVKPSQTLSLTCATSGFSLSDKTVGWVRQAPGKALEWLGSIDTSGNTGYNPLLKFRLSITKDNSKSQVSLSLSSATTADSATYYCTTVHQQTRKSCPDGYSFGYDCGFHGYGSEDCYPDCSDILTSDVVGPIDAYELHVDAWGQGLLVTVSS VL: QAVLTQPSSVSGSLGQRVSITCSGSSNNVGNGYVSWYQVIPGSAPRTLIYGDTSRASGVPDRFSGSRSGNTATLTITSLQAEDEADYFCSSAEDSSSNAIFGSGTTLTVL | no binding (tested: 20 µg/mL)
11 | Bess3 (antibody, source: Expi293 or 293F cells, transient, purified (Protein A Sepharose or Praesto AP)) VH: QVQLRESGPSLVKPSQTLSLTCTVSGFSLSDKAVGWVRQAPGKALEWLGSIDNGENIGYNPGLKSRLSITKDNSKSQVSLSVSSVTTEDSATYYCATVHQTTKTTKQCPDGYNYDDGCASDLGCGEADCCCYGGYDDYGGYLYSCCSYTYTYEWYVDTWGQGLLVTVSS VL: QAVLNQPSSVSGSLGQRVSITCSGSSSNVGNGYVSWYQLIPGSAPRTLIYGDTSRASGVPDRFSGSRSGNTATLTISSLQAEDEADYFCASAEDSSSNAVFGSGTTLTVL | no binding (tested: 20 µg/mL)
12 | Bess6 (antibody, source: Expi293 or 293F cells, transient, purified (Protein A Sepharose or Praesto AP)) VH: KVQLRESGPSLVKPSQTLSLICTVSGFSLSDKAVGWVRQAPGKALEWLGSIDTAGTTDHHPGLKSRLSITKDNSKNQVSLSLSSVTTEDSATYYCTTVHQPTSKQYSCPDGASVRTGGGWRWLCRGHDCCCVVEYIAYEQTPCTLTRTYEWHIDAWGQGLLVTVSS VL: QAVLNQPSSVSGSLGQRVSITCSGSSSNVGNGYVSWYQLIPGSAPRTLIYGDTSRASGVPDRFSGSRSGNTATLTISSLQAEDEADYFCASAEDSSSNAVFGSGTTLTVL | no binding (tested: 20 µg/mL)
13 | ElsE1 (antibody, source: Expi293 or 293F cells, transient, purified (Protein A Sepharose or Praesto AP)) VH: KVQLRESGPSLIKPSQTLSLTCTTSIFSLIDKTVGWVRQAPGKSLEWLGSIDTSGNTGYNPGLKSRLHITKDNSRSQVSLSLSSVTTADSATYYCTTVHQQTRKGCPDGWRFGWDCGFHGYGQEDCYEDCIDILSSQTLSPTDAYEFHVDAWGQGLLVTVSS VL: QAVLTQPSSVSGSLGQRVSITCSGSSGNVGNGYVSWYQLIPGSAPRTLIYGDTSRASGVPDRFSGSRSGNTATLTITSLQAEDETDYFCASAEGSSNNAVFGSGTTLTVL | no binding (tested: 20 µg/mL)
14 | ElsE10 (antibody, source: Expi293 or 293F cells, transient, purified (Protein A Sepharose or Praesto AP)) VH: KVQLRESGPSLVKPSQTLSLTCTTSGFSLSEKTVGWVRQAPGKPLEWLGTINTSGSGGSNPGLKSRLHITKDNSQSQVSLSLSSVTTADSATYYCTTVHQQTRKRCPDGWSFGWDCGFSGYGSEDCYDDCTDILSSNTLSPTDTYELHVDAWGQGLLVTVSS VL: QAVLTQPSSVSGSLGQRVSITCSGSSSNVGNGYVSWYQLIPGSAPRTLIYGDTSRASGVPDRFSGSRSGNTATLTISSLQAEDEADYFCASAEGSSSNIVFGVGTTLTVL | no binding (tested: 20 µg/mL)
15 | ElsE8 (antibody, source: Expi293 or 293F cells, transient, purified (Protein A Sepharose or Praesto AP)) VH: KVQLQESGPSLVKPSQTLSLTCTTSGFSLSDKGIAWVRQAPGKALEWLGSTDTTGSTNYNPGLKSRVIVTKDNSKSQVSLSLSSVTIADSATYYCTAVVQETRKSCPDGWRFGWDCGFHGYGTEDCYEDCVDILSSETVSSTDRYELHVDAWGQGLLVTVSS VL: QAVLSQPSSVSGSLGQRVSITCSGSSSNVGNGYVSWYQQFPGSAPRTLIYGDTGRSSGVPDRFSGSRSGNTATLSISSLQAEDEADYFCASAEGSSKHAVFGSGTTLTVL | no binding (tested: 20 µg/mL)
16 | ElsE9 (antibody, source: Expi293 or 293F cells, transient, purified (Protein A Sepharose or Praesto AP)) VH: KVQLRESGPSLVKPSQTLSLTCTTSGFSFSDKTVGWVRQAPGKALEWLGSIDTSGTTGYNPGLKSRLSITRDDSKSQVSLSLSSVTTADLATYYCTTVRQQVHKTCPQGWRFGWDCGFHGYGSDDCYEDCIDILSSQTLSAEDTYELHVDAWGQGLLVTVSS VL: QAVLTQPQSVRGSLGQRVSITCSGSSSNVGNGYVSWYQLIPGSAPRTLMYGDTTRASGVPDRFSGSRSGNTATLTISSLQAEDEADYFCASADGSSLHVAFGSGTTLTVL | no binding (tested: 20 µg/mL)
17 | ElsE7 (antibody, source: Expi293 or 293F cells, transient, purified (Protein A Sepharose or Praesto AP)) VH: QVQLQESGPSLVKPSQTLSLTCTTSGFSLSDNTVGWVRQAPGKALQWLGSITPSGSTNYNPGLKSRLGITKDNSNSQVSLSLTSATAADSATYYCTTVHQQTRKSCPDGWMFGFDCGFHGWGSEDCVDDCSDILSAQTLSPIYTNAYHVDAWGQGLLVTVSS VL: QAVLTQPSSVSGSLGQTVSITCSGLSNNGENGDVSWYQLIPGSAPHTLMYGDTSRASGVPDRFSGSRSGNTASLTISSLQAEDEADYFCASTGDEMISLLFGSGTTLTVL | no binding (tested: 20 µg/mL)
